The values below come from article PMC8604303.

Assay [1] deals with C9 TMH-1 lock mutant (C9_(TMH-1 lock), F262C V405C) (human) (UniProt P02748).
In assay [2] the target is C5b-8 (MAC precursor of C5b, C6, C7 and C8) assembled on E. coli (human) (UniProt P01031). Kind of assay: flow cytometry on cells; as a1 but Cy5-labelled C9 added with 10 mM DTT (the methods give 20 nM C8 added 15 min before C9 at RT). Background: Flow cytometry measures light scatter and fluorescence of single cells or particles in a stream.
The target in assay [3] is C9 TMH-1 lock mutant (C9_(TMH-1 lock), F262C V405C) (human) (UniProt P02748). Kind of assay: SDS-PAGE of SDS-stable polymeric-C9, in-gel Cy5 fluorescence; as a3 but 20 nM Cy5-labelled C9 incubated with the C5b-8 labelled bacteria in 10 mM DTT.
Assay [4] has the same target. This is another data set of the same source.
In assay [5] the target is C5b-8 (MAC precursor of C5b, C6, C7 and C8) assembled on E. coli (human) (UniProt P01031). Kind of assay: flow cytometry on cells; complement-resistant E. coli that express LPS O-Ag (552059.1, 552060.1, 567705.1, CGSC7740 wbbL+) in 3% C9-depleted serum with 25 nM Cy5-labelled C9 (up to 10-fold more on 552059.1) for 30 min at 37 C; MFI.
The target is the same in assay [6]. The experiment in a line: flow cytometry on cells; E. coli MG1655 labelled with C5b-7, washed, 10 nM C8 and a concentration range of Cy5-labelled C9 for 30 min; geoMFI.
Assay [7] shares this target. Kind of assay: flow cytometry on cells; E. coli MG1655 labelled with C5b-7 (10% C8-depleted serum, 30 min), washed, 10 nM C8 for 15 min, then 20 nM Cy5-labelled C9 for 30 min, no DTT; RPMI + 0.05% HSA; geoMFI.
Assay [8] has the same target. The experiment in a line: flow cytometry on cells; complement-sensitive E. coli (MG1655, BW25113, MC1061, 547563.1, CGSC7740 wildtype) in 3% C9-depleted serum with 25 nM Cy5-labelled C9 for 30 min at 37 C; Syto9 trigger; MFI.

wildtype C9 (C9wt), sequence (P02748 22-559): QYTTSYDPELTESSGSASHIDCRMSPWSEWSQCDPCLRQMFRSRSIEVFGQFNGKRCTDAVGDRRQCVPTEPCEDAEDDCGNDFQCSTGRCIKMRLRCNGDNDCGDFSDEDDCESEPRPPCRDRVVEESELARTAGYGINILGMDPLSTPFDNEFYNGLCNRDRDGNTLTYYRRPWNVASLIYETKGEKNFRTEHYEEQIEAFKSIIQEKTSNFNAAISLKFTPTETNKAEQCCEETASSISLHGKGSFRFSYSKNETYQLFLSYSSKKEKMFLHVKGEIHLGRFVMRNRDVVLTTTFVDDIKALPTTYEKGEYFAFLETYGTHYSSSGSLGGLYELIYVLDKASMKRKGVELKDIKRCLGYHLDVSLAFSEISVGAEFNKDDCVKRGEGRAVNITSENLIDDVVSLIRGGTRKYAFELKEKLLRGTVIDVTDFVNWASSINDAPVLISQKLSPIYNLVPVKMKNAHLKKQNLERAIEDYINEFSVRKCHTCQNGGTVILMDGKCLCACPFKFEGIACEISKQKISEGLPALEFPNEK

As to “C9 TMH-1 lock mutant (C9_(TMH-1 lock), F262C V405C) (from UniProt P02748 22-559) (natural protein)”, in assay [1], the bacterial viability (CFU) of E. coli MG1655 in 3% C9-depleted serum with 25 nM C9 after 30 min, against C9wt turned out to be 1000 fold; the outer membrane damage (DiOC2) and inner membrane damage (Sytox) of E. coli MG1655 in 3% C9-depleted serum with 25 nM C9, delay against C9wt was determined as 30 min. In assay [2], this substance returned a fold binding with DTT against C9 (TMH-1 lock) without DTT of 3 fold and a fold lower binding against C9wt with DTT of 2 to 3 fold. Further, in assay [3], the fold lower polymeric-C9 detection against C9wt with DTT fell in the range of 2 to 3 fold. Further, the bacterial viability (CFU) of C5b-8 labelled E. coli MG1655 with 100 nM C9, decrease compared to C5b-8 alone in assay [4] turned out to be 10 fold.
As for “wildtype C9 (C9wt) (from UniProt P02748 22-559) (natural protein)”, in assay [5], the fold binding against C9 (TMH-1 lock), on 552059.1 with up to 10-fold more C9 fell in the range of 2 to 3 fold. In assay [5], the fold binding against C9 (TMH-1 lock), on CGSC7740 wbbL+ came out at 2.5 fold. Also, the fold binding against C9 (TMH-1 lock) in assay [6] was under 10 fold; in assay [7], 10 fold; in assay [8] it was 5 to 15 fold. The substance further came in with a fold binding against C9 (TMH-1 lock), on CGSC7740 wildtype in assay [8] of 12 fold.
